Non-standard residues stand in square brackets, D forms with d. No end group written: not given here. pT = C[C@@H](OP(=O)(O)O)[C@H](N)C(=O)O
Tests used:
[1] = molecular target: T1, rNedd4-WW3/4 domain (third WW domain of rat Nedd4, GST tag removed) (rat, UniProt Q62940 452-499); assay: ITC; peptide titrated into the cleaved WW domain (40 to 150 uM) in the cell; 10 mM sodium phosphate, pH 7.4, 25 °C; MicroCal VP-ITC; bimolecular interaction model; three runs (further runs with 100 mM and 500 mM NaCl told in words only); conditions: both partners purified
T1 construct: Nedd4 E3 ubiquitin ligase, rat, third WW domain (WW3/4, homologue of the fourth WW domain in human); Thrombin cleavage may leave vector residues at the N-terminus (surmised); source: E. coli BL21(DE3), purified (Glutathione Sepharose 4B, thrombin cleavage on the resin); 15N-labelled in M9 medium for NMR; not shown: GST, N-terminal, cleaved

[2] = molecular target: T2, U24-6A protein (recombinant full length U24 from HHV-6A) (Human Herpes Virus type 6A (HHV-6A), UniProt Q69559 1-87); assay: pull-down; GST-Nedd4 WW domain (1 to 2 nmole) immobilised on 20 uL Glutathione Sepharose 4B resin, incubated 1 hour at 4 °C with U24 protein in pull down buffer (20 mM KH2PO4, 75 mM NaCl, 0.5% Triton X-100, pH 7.4; 1 mM DTT for U24-7); SDS-PAGE, silver stain; conditions: both partners purified
T2 construct: U24 protein of Human Herpes Virus type 6A (HHV-6A), full length
T2 sequence: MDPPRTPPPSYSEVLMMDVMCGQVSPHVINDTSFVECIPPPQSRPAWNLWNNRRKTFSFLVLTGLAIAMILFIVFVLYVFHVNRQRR

B1: U24-6A peptide (15-mer, N-terminus of U24 from HHV-6A) (peptide)
peptide: MDPPRTPPPSYSEVL
notes: U24 protein of Human Herpes Virus type 6A (HHV-6A), first 15 residues; source: purified peptide
[1]
  Kd: 43 µM
  dH: -11 kcal/mol

B2: pU24-6A peptide (15-mer, N-terminus of U24 from HHV-6A phosphorylated at Thr6) (peptide)
peptide: MDPPR[pT]PPPSYSEVL
notes: U24 protein of Human Herpes Virus type 6A (HHV-6A), 15-mer of the N-terminus with phospho-threonine at Thr6; source: purified peptide
[1]
  Kd: 13.5 µM
  dH: -12.9 kcal/mol

B3: GST-rNedd4-WW3/4 (third WW domain of rat Nedd4 fused to the C-terminus of GST) (domain or fragment)
chain: PVDSNDLGPLPPGWEERTHTDGRVFFINHNIKKTQWEDPRMQNVAITG
notes: Nedd4 E3 ubiquitin ligase, rat, third WW domain (WW3/4, homologue of the fourth WW domain in human); Plasmid was a gift from J. D. Forman-Kay; source: E. coli BL21(DE3), purified (Glutathione Sepharose 4B, eluted with glutathione); not shown: GST, N-terminal, kept
[2]
  binding result: binds

B4: GST-hNedd4L-WW3* (third WW domain of human Nedd4-like protein fused to the C-terminus of GST) (domain or fragment)
chain: QSFLPPGWEMRIAPNGRPFFIDHNTKTTTWEDPRLKFPVHMRSK
notes: Nedd4-like protein (Nedd4L), human, cDNA clone KIAA0439, third WW domain (WW3*); Cloned into BamHI and XhoI sites of pGEX-4T2; source: E. coli BL21(DE3), purified (Glutathione Sepharose 4B, eluted with glutathione); not shown: GST, N-terminal, kept
[2]
  binding result: binds
